The values that follow come from US20110263827A1 (AbbVie / Abbott, published 2011).

Sequences and labels used below:
B1: DVD756 (bispecific antibody)
VH: EVQLLESGGGLVQPGGSLRLSCAASGFTFSHYVMAWVRQAPGKGLEWVSSISSSGGWTLYADSVKGRFTISRDNSKNTLYLQMNSLRAEDTAVYYCTRGLKMATIFDYWGQGTLVTVSSASTKGPQVQLQESGPGLVKPSQTLSLTCTVSGYSISSDFAWNWIRQPPGKGLEWMGYISYSGNTRYQPSLKSRITISRDTSKNQFFLKLNSVTAADTATYYCVTAGRGFPYWGQGTLVTVSS
VL: QSALTQPASVSGSPGQSITISCTGTSSDVGSYNVVSWYQQHPGKAPKLIIYEVSQRPSGVSNRFSGSKSGNTASLTISGLQTEDEADYYCCSYAGSSIFVIFGGGTKVTVLGQPKAAPDIQMTQSPSSMSVSVGDRVTITCHSSQDINSNIGWLQQKPGKSFKGLIYHGTNLDDGVPSRFSGSGSGTDYTLTISSLQPEDFATYYCVQYAQFPWTFGGGTKLEIKR
notes: DVD-Ig; HC S, LC S; variable parts only
B2: DVD791 (bispecific antibody)
VH: QVQLQESGPGLVKPSQTLSLTCTVSGYSISSDFAWNWIRQPPGKGLEWMGYISYSGNTRYQPSLKSRITISRDTSKNQFFLKLNSVTAADTATYYCVTAGRGFPYWGQGTLVTVSSASTKGPSVFPLAPEVQLVESGGGLVQPGGSLRLSCAASGFTINASWIHWVRQAPGKGLEWVGAIYPYSGYTNYADSVKGRFTISADTSKNTAYLQMNSLRAEDTAVYYCARWGHSTSPWAMDYWGQGTLVTVSS
VL: DIQMTQSPSSMSVSVGDRVTITCHSSQDINSNIGWLQQKPGKSFKGLIYHGTNLDDGVPSRFSGSGSGTDYTLTISSLQPEDFATYYCVQYAQFPWTFGGGTKLEIKRTVAAPSVFIFPPDIQMTQSPSSLSASVGDRVTITCRASQVIRRSLAWYQQKPGKAPKLLIYAASNLASGVPSRFSGSGSGTDFTLTISSLQPEDFATYYCQQSNTSPLTFGQGTKVEIKR
notes: DVD-Ig; HC L, LC L; variable parts only
B3: DVD851 (bispecific antibody)
VH: QVQLQESGPGLVKPSQTLSLTCTVSGYSISSDFAWNWIRQPPGKGLEWMGYISYSGNTRYQPSLKSRITISRDTSKNQFFLKLNSVTAADTATYYCVTAGRGFPYWGQGTLVTVSSASTKGPEVQLVESGGGLVQPGGSLRLSCAASGFTINASWIHWVRQAPGKGLEWVGAIYPYSGYTNYADSVKGRFTISADTSKNTAYLQMNSLRAEDTAVYYCARWGHSTSPWAMDYWGQGTLVTVSS
VL: B2 VL
notes: DVD-Ig; HC S, LC L; variable parts only
B4: DVD821 (bispecific antibody)
VH: B2 VH
VL: DIQMTQSPSSMSVSVGDRVTITCHSSQDINSNIGWLQQKPGKSFKGLIYHGTNLDDGVPSRFSGSGSGTDYTLTISSLQPEDFATYYCVQYAQFPWTFGGGTKLEIKRTVAAPDIQMTQSPSSLSASVGDRVTITCRASQVIRRSLAWYQQKPGKAPKLLIYAASNLASGVPSRFSGSGSGTDFTLTISSLQPEDFATYYCQQSNTSPLTFGQGTKVEIKR
notes: DVD-Ig; HC L, LC S; variable parts only
B5: DVD779 (bispecific antibody)
VH: QVQLQESGPGLVKPSQTLSLTCTVSGYSISSDFAWNWIRQPPGKGLEWMGYISYSGNTRYQPSLKSRITISRDTSKNQFFLKLNSVTAADTATYYCVTAGRGFPYWGQGTLVTVSSASTKGPSVFPLAPEVQLVESGGGLVQPGGSLRLSCAASGYTFTNYGMNWVRQAPGKGLEWVGWINTYTGEPTYAADFKRRFTFSLDTSKSTAYLQMNSLRAEDTAVYYCAKYPHYYGSSHWYFDVWGQGTLVTVSS
VL: DIQMTQSPSSMSVSVGDRVTITCHSSQDINSNIGWLQQKPGKSFKGLIYHGTNLDDGVPSRFSGSGSGTDYTLTISSLQPEDFATYYCVQYAQFPWTFGGGTKLEIKRTVAAPSVFIFPPDIQMTQSPSSLSASVGDRVTITCSASQDISNYLNWYQQKPGKAPKVLIYFTSSLHSGVPSRFSGSGSGTDFTLTISSLQPEDFATYYCQQYSTVPWTFGQGTKVEIKR
notes: as for B2
B6: DVD839 (bispecific antibody)
VH: QVQLQESGPGLVKPSQTLSLTCTVSGYSISSDFAWNWIRQPPGKGLEWMGYISYSGNTRYQPSLKSRITISRDTSKNQFFLKLNSVTAADTATYYCVTAGRGFPYWGQGTLVTVSSASTKGPEVQLVESGGGLVQPGGSLRLSCAASGYTFTNYGMNWVRQAPGKGLEWVGWINTYTGEPTYAADFKRRFTFSLDTSKSTAYLQMNSLRAEDTAVYYCAKYPHYYGSSHWYFDVWGQGTLVTVSS
VL: B5 VL
notes: as for B3
B7: DVD809 (bispecific antibody)
VH: B5 VH
VL: DIQMTQSPSSMSVSVGDRVTITCHSSQDINSNIGWLQQKPGKSFKGLIYHGTNLDDGVPSRFSGSGSGTDYTLTISSLQPEDFATYYCVQYAQFPWTFGGGTKLEIKRTVAAPDIQMTQSPSSLSASVGDRVTITCSASQDISNYLNWYQQKPGKAPKVLIYFTSSLHSGVPSRFSGSGSGTDFTLTISSLQPEDFATYYCQQYSTVPWTFGQGTKVEIKR
notes: as for B4
B8: DVD789 (bispecific antibody)
VH: QVQLQESGPGLVKPSQTLSLTCTVSGYSISSDFAWNWIRQPPGKGLEWMGYISYSGNTRYQPSLKSRITISRDTSKNQFFLKLNSVTAADTATYYCVTAGRGFPYWGQGTLVTVSSASTKGPSVFPLAPEVQLVESGGGLVQPGGSLRLSCAASGFTISDYWIHWVRQAPGKGLEWVAGITPAGGYTYYADSVKGRFTISADTSKNTAYLQMNSLRAEDTAVYYCARFVFFLPYAMDYWGQGTLVTVSS
VL: DIQMTQSPSSMSVSVGDRVTITCHSSQDINSNIGWLQQKPGKSFKGLIYHGTNLDDGVPSRFSGSGSGTDYTLTISSLQPEDFATYYCVQYAQFPWTFGGGTKLEIKRTVAAPSVFIFPPDIQMTQSPSSLSASVGDRVTITCRASQDVSTAVAWYQQKPGKAPKLLIYSASFLYSGVPSRFSGSGSGTDFTLTISSLQPEDFATYYCQQSYTTPPTFGQGTKVEIKR
notes: as for B2
B9: DVD819 (bispecific antibody)
VH: B8 VH
VL: DIQMTQSPSSMSVSVGDRVTITCHSSQDINSNIGWLQQKPGKSFKGLIYHGTNLDDGVPSRFSGSGSGTDYTLTISSLQPEDFATYYCVQYAQFPWTFGGGTKLEIKRTVAAPDIQMTQSPSSLSASVGDRVTITCRASQDVSTAVAWYQQKPGKAPKLLIYSASFLYSGVPSRFSGSGSGTDFTLTISSLQPEDFATYYCQQSYTTPPTFGQGTKVEIKR
notes: as for B4
B10: DVD849 (bispecific antibody)
VH: QVQLQESGPGLVKPSQTLSLTCTVSGYSISSDFAWNWIRQPPGKGLEWMGYISYSGNTRYQPSLKSRITISRDTSKNQFFLKLNSVTAADTATYYCVTAGRGFPYWGQGTLVTVSSASTKGPEVQLVESGGGLVQPGGSLRLSCAASGFTISDYWIHWVRQAPGKGLEWVAGITPAGGYTYYADSVKGRFTISADTSKNTAYLQMNSLRAEDTAVYYCARFVFFLPYAMDYWGQGTLVTVSS
VL: B8 VL
notes: as for B3
B11: DVD337 (bispecific antibody)
VH: B6 VH
VL: B7 VL
notes: as for B1

The target of the first assay is T1, EGFR (UniProt P00533 25-645, limits assumed, biotinylated).
T1 construct: ELISA antigen; construct not described
Briefly: direct bind ELISA, C-term VD.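 Note: ELISA with antibody or DVD-Ig preparations applied to target antigen-coated plates for 1 h at room temperature, TMB colour development, absorbance read at 450 nm.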 Background: An ELISA detects its analyte on a solid surface through an enzyme-linked reagent.
The term EC50 denotes the concentration needed to bring the measured effect to its halfway point. High values mean weaker potency, low ones greater potency. In turn, B1 returned an EC50 of 48.9 nM.

The next assay addresses T2, VEGF (UniProt P15692-4 27-191, limits assumed, biotinylated).
T2 construct: ELISA antigen
Description: direct bind ELISA, C-term VD.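 Note: ELISA with antibody or DVD-Ig preparations applied to target antigen-coated plates for 1 h at room temperature, TMB colour development, absorbance read at 450 nm.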
Molecule B2 came in with a concentration giving a half-maximal response (EC50) of 11.6 nM.
B3 came in with an EC50 of 28.4 nM.
Same read-out and setting: the result for B4 reads 11.1 nM; that for B5, 0.24 nM.
As for B6, the EC50 worked out at 0.26 nM.
For B7, the concentration giving a half-maximal response (EC50) came out at 0.23 nM.
For the molecule B8, the concentration for a half-maximal effect (EC50) was found to be 46 nM.
B9 had an EC50 of 36.4 nM.
As to B10, the EC50 came out at 59.6 nM.
In turn, B11 returned a half-maximal effective concentration (EC50) of 0.57 nM.

Another assay deals with T1, EGFR. Briefly: direct bind ELISA, N-term VD.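 Note: antibody or DVD-Ig preparations bound to immobilized target antigen on ELISA plates, 1 h at room temperature, TMB detection read as absorbance at 450 nm.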
B2 returned an EC50 of 8.24 nM.
For the molecule B3, the concentration giving a half-maximal response (EC50) was determined as 9.36 nM.
Take B4: a half-maximal response (EC50) required 6.96 nM.
For the molecule B5, the midpoint of the response, the EC50, lay at 10.6 nM.
The same measure, in the same setting: the figure for B6 is 12.5 nM; for B7 it is 7.34 nM.
Same read-out and setting: the figure for B8 is 14.6 nM; for B9 it is 12.2 nM; for B10 it is 12.3 nM.
In the case of B11, the concentration giving a half-maximal response (EC50) is 6.5 nM.

In a further assay the target is T3, ErbB3 (UniProt P21860 20-643, limits assumed, biotinylated).
T3 construct: ELISA antigen
Briefly: direct bind ELISA, N-term VD.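 Note: antibody or DVD-Ig preparations bound to immobilized target antigen on ELISA plates, 1 h at room temperature, TMB detection read as absorbance at 450 nm.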
In the case of B1, the 50% effective concentration (EC50) stood at 3.94 nM.
